± gives the standard deviation.
Assay: protein stability index of a GFP-peptide fusion (GPS, HEK-293T) (PSI 1-6); higher = more stable
Details: c terminus: a fixed tail appended
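Also: 24-mer peptide tiles fused after GFP, lentivirally expressed, FACS-sorted into six equal bins by GFP/DsRed ratio, decoded by Illumina sequencing, PSI is the read-weighted mean bin number.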

## NKKAKRYLLHGLECVVAMHQAQLI [EIF5]
treatment: DMSO
  protein stability index: 3.02 ± 0.47
treatment: MLN4924 1 uM, 8 h
  protein stability index: 2.5 ± 0.4

## SPLHLVQMPPVIVETARSHQRSSS [PI4K2A]
treatment: DMSO
  protein stability index: 4.22 ± 0.18
treatment: MLN4924 1 uM, 8 h
  protein stability index: 4.24 ± 0.2

## EYLSLVKGGQDVKKKVHLSEKIHP [PRIM1]
treatment: DMSO
  protein stability index: 2.65 ± 0.3
treatment: MLN4924 1 uM, 8 h
  protein stability index: 2.79 ± 0.39

## FFPMGDEGASSQIGRAAGTGFTVN [HDAC6]
treatment: DMSO
  protein stability index: 3.46 ± 0.17
treatment: MLN4924 1 uM, 8 h
  protein stability index: 3.69 ± 0.15

## LGPSLEDLFDLCDRTFTLKTVLMI [CSNK1G1]
treatment: DMSO
  protein stability index: 2.69 ± 0.82
treatment: MLN4924 1 uM, 8 h
  protein stability index: 2.56 ± 0.9

## CYVGATVLRGRLYAIAGYDGNSLL [KLHL12]
treatment: DMSO
  protein stability index: 3.2 ± 0.34
treatment: MLN4924 1 uM, 8 h
  protein stability index: 2.57 ± 0.68

## LFVLELEWVLSTGQDKQFAWHCSE [WDFY2]
treatment: DMSO
  protein stability index: 2.99 ± 0.34
treatment: MLN4924 1 uM, 8 h
  protein stability index: 2.77 ± 0.72

## RSELVEGCGWRCPEHGDRVAELFC [TRIM14]
treatment: DMSO
  protein stability index: 2.86 ± 0.12
treatment: MLN4924 1 uM, 8 h
  protein stability index: 3.04 ± 0.36

## IIYVASNHFVWRLIPVPMATQIQQ [VPS39]
treatment: DMSO
  protein stability index: 3.19 ± 0.35
treatment: MLN4924 1 uM, 8 h
  protein stability index: 3.09 ± 0.65

## SKNEDRGEEEAESSISSTSNEQLK [ZMYND11]
treatment: DMSO
  protein stability index: 5.33 ± 0.63
treatment: MLN4924 1 uM, 8 h
  protein stability index: 5.49 ± 0.21

## FNYSVGFKDLNESLNALEDQDLDA [APBB1IP]
treatment: DMSO
  protein stability index: 4.13 ± 0.33
treatment: MLN4924 1 uM, 8 h
  protein stability index: 3.98 ± 0.68

## VRPGTPPDFILKVVIDKHPVRFFV [CTDNEP1]
treatment: DMSO
  protein stability index: 2.95 ± 0.49
treatment: MLN4924 1 uM, 8 h
  protein stability index: 2.92 ± 0.42

## ECEEGELSFYDAERHCHLYTFHAR [TRIM35]
treatment: DMSO
  protein stability index: 3.18 ± 0.27
treatment: MLN4924 1 uM, 8 h
  protein stability index: 3.21 ± 0.24

## PQYTIRCRPLQFQPSKSHKKVLKK [ATE1]
treatment: DMSO
  protein stability index: 3.6 ± 0.09
treatment: MLN4924 1 uM, 8 h
  protein stability index: 3.88 ± 0.3

## TNLKETYRCIREARYTMPSSLLAP [PLK2]
treatment: DMSO
  protein stability index: 2.34 ± 0.54
treatment: MLN4924 1 uM, 8 h
  protein stability index: 2.3 ± 0.08

## YQRNLPRPGQAPIGNPPVGPIGGM [ZNF207]
treatment: DMSO
  protein stability index: 2.87 ± 0.32
treatment: MLN4924 1 uM, 8 h
  protein stability index: 3.31 ± 0.41

## VPPKDSAPKDSAPQDLAPQVSAHH [TBC1D10A]
treatment: DMSO
  protein stability index: 5.47 ± 0.19
treatment: MLN4924 1 uM, 8 h
  protein stability index: 5.4 ± 0.18

## VVHWVQSIGLRDYAGNLHESGVHG [PPFIA4]
treatment: DMSO
  protein stability index: 2.56 ± 0.27
treatment: MLN4924 1 uM, 8 h
  protein stability index: 1.93 ± 0.36

## PTTSFLSISKLSPFSEFFKLRFNR [PWWP2B]
treatment: DMSO
  protein stability index: 2.07 ± 0.33
treatment: MLN4924 1 uM, 8 h
  protein stability index: 2.13 ± 0.36

## VGWWALLALVTLLSFATRFHRLDE [POMT2]
treatment: DMSO
  protein stability index: 3.42 ± 0.39
treatment: MLN4924 1 uM, 8 h
  protein stability index: 2.98 ± 0.39

## NKRLAKYRMRNVHPKPKLVRVLES [CLCN6]
treatment: DMSO
  protein stability index: 3.1 ± 0.33
treatment: MLN4924 1 uM, 8 h
  protein stability index: 3 ± 0.29

## FVAFALCMFCLYSFMPLVIKVTSA [SLC35F2]
treatment: DMSO
  protein stability index: 3.2 ± 0.44
treatment: MLN4924 1 uM, 8 h
  protein stability index: 3.32 ± 0.68

## LKVRYRERITILRGNHESRQITQV [PPP2CA]
treatment: DMSO
  protein stability index: 2.37 ± 0.19
treatment: MLN4924 1 uM, 8 h
  protein stability index: 2.42 ± 0.32

## ALSLLELLGFNLTFVFLASLLVLI [CLCN6]
treatment: DMSO
  protein stability index: 3.23 ± 0.93
treatment: MLN4924 1 uM, 8 h
  protein stability index: 2.69 ± 0.97

## YHRETEGEEQAQLLHVSSPNLASD [KCNA1]
treatment: DMSO
  protein stability index: 5.16 ± 0.3
treatment: MLN4924 1 uM, 8 h
  protein stability index: 5.21 ± 0.27

## KNRSFDIDAIYSVIDDAKQYVYIA [PLD5]
treatment: DMSO
  protein stability index: 2.75 ± 0.55
treatment: MLN4924 1 uM, 8 h
  protein stability index: 2.47 ± 0.71

## NQRMKSKRWQKNNWPKNSNGVTQK [NANOGP8]
treatment: DMSO
  protein stability index: 3.89 ± 0.44
treatment: MLN4924 1 uM, 8 h
  protein stability index: 4.2 ± 0.42

## GALWGLQAQAVQTEQAVALLRDRT [SCARA5]
treatment: DMSO
  protein stability index: 3.07 ± 0.23
treatment: MLN4924 1 uM, 8 h
  protein stability index: 3.03 ± 0.31

## FGAAGVNRLSIGLQSLDDTELRLL [RSAD1]
treatment: DMSO
  protein stability index: 2.8 ± 0.094
treatment: MLN4924 1 uM, 8 h
  protein stability index: 2.76 ± 0.54

## SLPRDRVLGFLIENFKGLAIPYLE [VPS39]
treatment: DMSO
  protein stability index: 3.24 ± 0.26
treatment: MLN4924 1 uM, 8 h
  protein stability index: 2.92 ± 0.49

## EKEMQKMNPYKIDIGAVYSHRPNQ [PRIM1]
treatment: DMSO
  protein stability index: 3.64 ± 0.43
treatment: MLN4924 1 uM, 8 h
  protein stability index: 3.44 ± 0.32

## AWEPRSESQASRKEEGLPEEEPSH [ZNF8]
treatment: DMSO
  protein stability index: 5.38 ± 0.59
treatment: MLN4924 1 uM, 8 h
  protein stability index: 5.59 ± 0.1

## GPSVSEPPGLPRVSAYVDTTADLD [SPATS1]
treatment: DMSO
  protein stability index: 5.16 ± 0.41
treatment: MLN4924 1 uM, 8 h
  protein stability index: 5.18 ± 0.25

## KSVLIPVYGVSKETFLSFLEYLYT [RHOBTB3]
treatment: DMSO
  protein stability index: 2.24 ± 0.38
treatment: MLN4924 1 uM, 8 h
  protein stability index: 2.22 ± 0.15

## ATKTEPKKLEKYLQKLSALLMTAD [ELOA2]
treatment: DMSO
  protein stability index: 2.54 ± 0.59
treatment: MLN4924 1 uM, 8 h
  protein stability index: 2.31 ± 0.54

## NRDEVLDNLLAFVCDIRPEIHENY [ATP6V1G1]
treatment: DMSO
  protein stability index: 2.49 ± 0.51
treatment: MLN4924 1 uM, 8 h
  protein stability index: 2.71 ± 0.37

## DLPPPPADPVLDLPLPPPPPEPLS [APBB1IP]
treatment: DMSO
  protein stability index: 5.39 ± 0.3
treatment: MLN4924 1 uM, 8 h
  protein stability index: 5.33 ± 0.18

## SWRWIMLILFAWGTLLFYIGGHLV [FUT8]
treatment: DMSO
  protein stability index: 2.42 ± 0.14
treatment: MLN4924 1 uM, 8 h
  protein stability index: 2.27 ± 0.47

## PLPQIPNLPFWVKEKANSLKNEIQ [SPATS1]
treatment: DMSO
  protein stability index: 2.79 ± 0.45
treatment: MLN4924 1 uM, 8 h
  protein stability index: 3.4 ± 0.3

## NPQSPPQDSSVTSKRNIKKGAVPR [HDAC6]
treatment: DMSO
  protein stability index: 4.99 ± 0.43
treatment: MLN4924 1 uM, 8 h
  protein stability index: 5.14 ± 0.38

## DPMLDFYSDKNAKLTKESYPVVVA [TENT5D]
treatment: DMSO
  protein stability index: 3.77 ± 0.26
treatment: MLN4924 1 uM, 8 h
  protein stability index: 3.85 ± 0.23

## ERNEVRNVFKELQIMQGLEHPFLV [STK32A]
treatment: DMSO
  protein stability index: 2.71 ± 0.32
treatment: MLN4924 1 uM, 8 h
  protein stability index: 2.72 ± 0.41

## MLQSFINYCLLFLIYTVMLAFRSG [SLC35F2]
treatment: DMSO
  protein stability index: 2.83 ± 0.4
treatment: MLN4924 1 uM, 8 h
  protein stability index: 3.42 ± 0.28

## KDEPSKYNQQQALIDQRYFQVLCS [CEP70]
treatment: DMSO
  protein stability index: 3 ± 0.063
treatment: MLN4924 1 uM, 8 h
  protein stability index: 3.13 ± 0.24
